# In IntAct's records for PubMed 25616961:
# B1: Heterogeneous nuclear ribonucleoprotein A1 (Homo sapiens), P09651-2 (parent)
# chain: MSKSESPKEPEQLRKLFIGGLSFETTDESLRSHFEQWGTLTDCVVMRDPNTKRSRGFGFVTYATVEEVDAAMNARPHKVDGRVVEPKRAVSREDSQRPGAHLTVKKIFVGGIKEDTEEHHLRDYFEQYGKIEVIEIMTDRGSGKKRGFAFVTFDDHDSVDKIVIQKYHTVNGHNCEVRKALSKQEMASASSSQRGRSGSGNFGGGRGGGFGGNDNFGRGGNFSGRGGFGGSRGGGGYGGSGDGYNGFGNDGSNFGGGGSYNDFGNYNNQSSNFGPMKGGNFGGRSSGPYGGGGQYFAKPRNQGGYGGSSSSSSYGSGRRF
# Variants of: B1
# Details: with ubql2_human UBQLN2, Q9UHD9
# ubql2_human UBQLN2, Q9UHD9, sequence (Q9UHD9 whole entry): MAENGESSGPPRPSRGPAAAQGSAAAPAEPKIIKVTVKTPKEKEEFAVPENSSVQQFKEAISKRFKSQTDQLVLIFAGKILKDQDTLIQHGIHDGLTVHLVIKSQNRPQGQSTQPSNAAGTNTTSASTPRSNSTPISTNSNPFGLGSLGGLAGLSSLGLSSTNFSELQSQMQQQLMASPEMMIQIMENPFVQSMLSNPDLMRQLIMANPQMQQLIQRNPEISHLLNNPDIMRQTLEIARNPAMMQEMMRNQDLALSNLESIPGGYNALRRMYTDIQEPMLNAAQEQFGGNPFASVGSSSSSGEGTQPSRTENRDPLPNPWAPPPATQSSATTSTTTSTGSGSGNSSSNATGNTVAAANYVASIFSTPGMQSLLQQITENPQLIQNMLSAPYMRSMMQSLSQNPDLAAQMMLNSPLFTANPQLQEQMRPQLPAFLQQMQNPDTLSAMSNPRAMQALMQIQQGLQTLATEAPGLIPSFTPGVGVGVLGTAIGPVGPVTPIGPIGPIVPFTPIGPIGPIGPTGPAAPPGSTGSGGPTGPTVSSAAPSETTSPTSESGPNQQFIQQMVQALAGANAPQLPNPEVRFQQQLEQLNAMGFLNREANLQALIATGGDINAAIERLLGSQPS
row,effect of a mutation on the interaction,Variant
1,decreasing interaction,D262V
